In the supplement of paper PMC12455559:
± gives the standard deviation of the averaged measurements.

Experiments:
[1] = purified protein yield per well (BCA); higher = higher soluble expression
How it was run: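 The measured quantity is purified protein yield per well, determined with the Pierce Rapid Gold BCA kit. Anything below 25 ug (0.1 mg/mL) lies under the detection threshold. Enzymes were expressed in E. coli C41(DE3) in 2 mL autoinduction cultures with 100 µg/mL kanamycin at 37 °C for 2 h, then 18 °C for 40 h, and purified on an OT-2 robot using Ni-charged magnetic beads and SUMO protease release.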

[2] = melting temperature (DSF); higher = more thermostable
Protocol: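 Candidate PET hydrolases were expressed in E. coli C41(DE3) in 2 mL autoinduction cultures in 24-deep-well plates, Ni-bead purified and released by SUMO protease cleavage on an OT-2 robot. Yield per well was measured by BCA; values below 25 ug (0.1 mg/mL) are below the detection threshold. Melting temperature was measured by differential scanning fluorimetry with Sypro Orange, ramping from 25 C at 0.3 C/step.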

[3] = PET hydrolysis, aromatic products released after 48 h (umol product/mg enzyme); higher = more PET depolymerization activity
Protocol: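 HTP-purified, SUMO-cleaved, tagless PET hydrolase candidates (5 ug, 1.43 mg/g PET) were incubated 48 h without shaking with 3.5 mg amorphous PET film (aFilm) or crystalline PET powder (cryPow) in 0.5 mL buffer: NaCitrate pH 4.5/5.5, NaPhosphate pH 6.5/7.5, glycine pH 8.5. Incubation was at 40 or 60 C. Aromatic products (TPA, MHET, BHET) in the supernatant were quantified by UV absorbance at 260/280 nm relative to buffer blanks and expressed per mg enzyme. LCC-ICCG was the positive control on every plate.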

[4] = substrate: aFilm, 40 °C, pH 4.5
[5] = substrate: aFilm, 40 °C, pH 5.5
[6] = substrate: aFilm, 40 °C, pH 6.5
[7] = substrate: aFilm, 40 °C, pH 7.5
[8] = substrate: aFilm, 60 °C, pH 4.5
[9] = substrate: aFilm, 60 °C, pH 5.5
[10] = substrate: aFilm, 60 °C, pH 6.5
[11] = substrate: aFilm, 60 °C, pH 7.5
[12] = substrate: cryPow, 40 °C, pH 4.5
[13] = substrate: cryPow, 40 °C, pH 5.5
[14] = substrate: cryPow, 40 °C, pH 6.5
[15] = substrate: cryPow, 40 °C, pH 7.5
[16] = substrate: cryPow, 60 °C, pH 4.5
[17] = substrate: cryPow, 60 °C, pH 5.5
[18] = substrate: cryPow, 60 °C, pH 6.5
[19] = substrate: cryPow, 60 °C, pH 7.5

Sequence | purified protein yield per well [1] | melting temperature [2] | PET hydrolysis [3, 4] | PET hydrolysis [3, 5] | PET hydrolysis [3, 6] | PET hydrolysis [3, 7] | PET hydrolysis [3, 8] | PET hydrolysis [3, 9] | PET hydrolysis [3, 10] | PET hydrolysis [3, 11] | PET hydrolysis [3, 12] | PET hydrolysis [3, 13] | PET hydrolysis [3, 14] | PET hydrolysis [3, 15] | PET hydrolysis [3, 16] | PET hydrolysis [3, 17] | PET hydrolysis [3, 18] | PET hydrolysis [3, 19] | PET hydrolysis ([3]; substrate: cryPow, 40 °C, pH 8.5) | PET hydrolysis ([3]; substrate: cryPow, 60 °C, pH 8.5)
ADNPYQRGPDPTQSSVTAVNGPFANTSVSVPTGYGFNGGRIYYPTDTSQGTFGAIAISPGYTALFSAELAWMGPWLASHGFVVIGIETNSRNDFDTARGTQLLAALDYLTQQSPVRDRVDPTRLAVAGHSMGGGGALSAAMRRPSLKAVVGIAPYSPSSNLANDRVPTMILSGQADTVVTPSYATGLYNSLPSTTESVYLEVAGADHGFMVGRPNPVMVRTMLPFVKMFVDNDARYSQFLCPLLDSSGVVTYRSTCPLLPTTPTTPTPTTPGPTTPGPTPTVSPSVPPTSAGEIVGTQSGRCIDVPNASRNNGTRVQLYDCNRQTNQTWTYTSGKQLQVYGNMCLDAAGTGNGAAVQIYSCHSQTNQQWNINANGTISNVQSGRCLDAWSTANGAQIQLYDCHGQTNQQFRLVARA [ESM075] | 233 µg | 62.2 C | < 3 | 4 | < 3 | < 3 | < 3 | < 3 | < 3 | < 3 | 12.5 ± 2.1 | 21 ± 1.4 | 23 ± 1.4 | 7 | < 3 | 1.5 ± 2.1 | < 3 | < 3 |  | 
ADNPYERGPAPTEASVEAPRGPYAVSETTVSPLAVTGFGGGTVYYPTSTADGTFGAIAVSPGYTGTQSSIAWLGPRLASQGFVVFTIDTLTTLDQPDSRGRQLLAALDYLTQKSSVRGRIDSTRLGVMGHSMGGGGSLEAAKSRPSLQAAIPLTPWNLDKTWPEVATPTLIFGADGDTIAPVATHAEPFYTSLPASLDRAYLELNGATHFTPNTSNTTIAKYSIAWLKRFIDDDTRYEQFLCPLPRPGLTIEEYRGNCPHTS [TEP117] | 202 µg | 40 C | < 3 | < 3 | < 3 | < 3 | < 3 | < 3 | < 3 | < 3 | < 3 | < 3 | < 3 | < 3 | < 3 | < 3 | < 3 | < 3 |  | 
ADNPYERGPAPTTSSIEASRGPFATASTTVSSLVSGFGGGTIYYPTSTAEGTFGAVAISPGYTGTQSSIAWLGPRIASQGFVVITIDTNTIYDQPDSRASQLLAALDYLTQSSSVRTRIDATRLGVMGHSMGGGGTLRAAESRPALQAAIPLTAWHTDKTWGNVRVPTLVIGAENDSIAPVATHSEPFYTSLPSTLDKAYLELNAADHFAPNSSNTTIAKYSISWLKRFIDNDTRYEQFLCPPPSRSLLIEEYRDTCPHS [TEP108] | 53.3 µg | 42.1 C |  |  |  |  |  |  |  |  | < 3 | < 3 | < 3 | < 3 |  |  |  |  |  | 
SAQVTRQAAGSYARGPAPTLAGIRAALGPFAYSTVTVTAAQAGGAFGGGTIYYPDDTSQGTFGGVAAVPGYQSAEKAVAWLGPRLASQGFVVITIATNGLTDQPTARGKQLLGALDYLTAQSPAAVRQRLDPNRLAVTGHSMGGGGTLYAAWTRPSLKAAVPLAPWHTIKNWSGITVPTLVQGGTQDTTAQVGTFAEPIYQSLTGARERAYAEIADAAHGTFVRENPLIGALEVAWLKRFVDDDGRYEQFLCPAPADSELTEYRDSCPSS [DP009] | 165 µg | 46.9 C |  |  |  |  |  |  |  |  |  | 4 | 5 | 6 |  | < 3 | < 3 | < 3 | 10 | < 3
AQENPYERGPAPTAQNITEDGPFAYATATVPAQSGFAGGAIYYPTDTSQGTFGAVAAVPGFLTPVDDVAWMGPRLASHGFVVFTIEPNSRFEFPSGRAAALKAGLTYLTQSSAVRDRVDPTRLAVAGHSMGGGAALEAALKDPNLKAAVALQPWHTGVNFSTVNVPSMIVGAENDPIASPASHAEPFYEQIPAASEKAYLNLAGVGHEVGGVVTNDTQSSMMLTWLKRYVDNDTRYEPFMCPGPSGSSVLEYRGTCPG [TEP170] | 137 µg | 49.3 C |  |  |  |  |  |  |  |  | < 3 | < 3 | < 3 | < 3 | < 3 | < 3 | < 3 | < 3 |  | 
AENPYERGPAPTTASIEALRGPFATAETTVSSLSVRGFGGGTIHYPTSTAEGTFGAVAVAPGYTASQSSLSWLGPRLASQGFVVFVIDTNSRYDQPASRGDQLLAALDYLTTSSSVRGRIDASRLGVMGHSMGGGGALEATKDRPSLQASIPLTPWNTTKTWSTVRTPTLVVGAEDDSVAPVRTHAEPFYEGLPSTLDKAYLELAGASHFAPNSSNTTIAKYSIAWLKRFVDDDTRYEQFLCPAPRGTAISEYRDTCPHP [TEP110] | 48.9 µg | 47.2 C |  |  |  |  |  |  |  |  | < 3 | < 3 | < 3 | < 3 |  |  |  |  |  | 
LNPYQRGPNPTDAILEASSGPYATSSISVPSIVSGFGGGRIYYPTTTADGTFGGIAISPGFTATWSSLSWLGPRLASHGFVVIGIETNTIYDQPTSRGQQLLAALDYLVNTSSVRTRVDSSRLAVAGHSMGGGGTLWAANSRPSLQAAIPLAPWNTDKSWSGVRVPTLIVGGQSDTVAPVATHSIPFYTSIPAASEKAYLELRSASHFFPQTVNTTVAVSMVSWLKRYVDDDTRYDPWLCPGPSGLSVSDYRDTCPA [TEP178] | 64.5 µg | 52 C |  |  |  |  |  |  |  |  | < 3 | 6 | 21 | 29 | < 3 | < 3 | 3 | 4 |  | 
ADNPYQRGPNPTRESVAASRGTFATAETSVGGGNGFAAAKIYYPTDTGQGKFGAIAVVPGYTATWAAEGAWMGHWLASFGFVVIGIDTLSRNDWDVARGTQLLAALDYLTQRSSVRDRVDATRLAVMGHSMGGGGAISAALRRPSLKTAIGNAPFSASQNLNNMQIPTALLAGQRDGTTTPSSISGYYNQIPAGVEKMYLELTGAGHGFPTSNNSVMTRKVIPWMKIFIDNDTRYHQFLCPLMDNTGISAYRSTCPLIPGDPTPPSDTYSLVGAASGKCADVEGVSQANGARLLLWTCNGQVNQRWTQTAAGELRVYDNPKCMDAGASAQGTRVTINACNGGNSQKWTVNANGTVTNAASGRCLDAGGTADNSPVVVNTCTGGSSQNWSKRS [TEP029] | 282 µg | 57.7 C | < 3 | < 3 | < 3 | < 3 | < 3 | < 3 | < 3 | < 3 | < 3 | < 3 | 14.5 ± 5 | 15.5 ± 0.71 | < 3 | < 3 | < 3 | < 3 |  | 
TADSSYQRGPAPTEASVRADRGPFQVARVNVPGAGFGSGTIYYPTDTSQGTFGGVAVSPGFLSPEILIAWLGPRLASHGFVVITFTTNTPTDQPDSRGSQLLAALDYLTTQSPTAVRQRLDNTRLSVIGHSMGGGGALRAANDRPDLQAAVPLGPYHTTKDWSGVRVPTMIIGGQYDSIAPNDQHSERFYNSLDSAPEKAYLRVTGTTHITVGTGTPGVGKYVLSWLKRFVDDDTRYDQFLCPTPSGPDVVEYHSTCPHA [TEP009] | 28.4 µg | 49.3 C |  |  |  |  |  |  |  |  |  |  |  |  |  |  |  |  |  | 
ADNPYERGPAPTTASIEAVRGPYAVSEYRVSSLAATGFGGGTIHYPTTTADGTFGAIAVSPGYTGTESTIAWLGPRLASQGFVVFTIETLTLFDQPDSRGRQLLAALDHLTRVSPLRGRVDSSRLGVMGHSMGGGGSLEAAKSRPSLQAAVPLTPWNLDKTWPELRTPTLVVGADGDSIAPVRSHAEPFYESLPSSLDRAYLELNGASHFAPNSPDTTIAKYSIAWLKRFIDNDTRYEQFLCPLPRPSLTIEEYRGNCPHTS [TEP138] | 28 µg | 36.1 C |  |  |  |  |  |  |  |  |  |  |  |  |  |  |  |  |  | 
ADSPYQRGPDPTPASVAATRGPFATTQATVPAGNGFNGGYVYYPTDTSQGTWGAVAIVPGYSALFANEEAWMGPWLASFGFVVIGIETNSRTDGADARATQLLAALDYLTRTSPIRDRVDANRLGVMGHSAGGAGTLLAALRRPTLKTAVGLAPGTPGNNLNMSTTQVPTMLLSGQNDGTVTPTYVQGIYNTLPAGVEHAWAELAGNDHLSFTRSNPTEMRLLIPWLKTFLDNDTRYTQFLCPLANSTGVSRYNATCPLVPPDGPTSPPTTTPPTSAPPTTSAPTTPPPSGATCTATYRTVNSWSGGFQGEVTVTAGAAALNGWTVRWESNNGQSISQVWNGTLSTSGSTATVRNVSYNGSLAAGATTTFGFLSSGTPAATSPTCASP [ESM051] | 27.3 µg | 54.4 C |  |  |  |  |  |  |  |  |  |  |  |  |  |  |  |  |  | 
FSATGPSAPCSNCTRGPAPTVTALKASTGPFTTAKFSVSGFLKGYGDSTVYYPTNTTGKMGAIAVIPGYLSYESSIDWWGPRLASHGFVVMTMNTKTIYDQPDSRASQLSEALDYLIAQSKSSSSPLYNKIDSTRLGAIGWSMGGGGSLKLATQRSINAIIPQAPWYLGSSAFSGIKTPTLILACSADTVAPVAQHASPFYNQIPNSTPKAFLEIYGGSHFCANSGYPNQDMLGMYGIAWMKRFIDFDSRYSQFLCGPNHESDYAISDYRENCPY [ESM055] | 28.9 µg | 55.3 C |  |  |  |  |  |  |  |  |  |  |  |  |  |  |  |  |  | 
TNPAPPSTPNPPAEESPYVRGPNPTVSFLEARSGPLSVRTSRVSSLVSGFGGGTIHYPTGTTGTMGAVVVIPGFVSAESSIDWWGPKLASHGFVVLTIDTNTGFDQPPSRARQINNALDYLVSQNSSRTSPVRGMIDTNRLGVIGWSMGGGGTLRVASEGRIKAAIPLAPWDTVSSYAANAQAPTLIFACQADIVAPVAAHASPFYNRLPNSIDKAYVEISGGSHYCANGGGLNNNVLSRFGVSWMKRFLDEDTRYSQFLCGPNHRSDRDIADYRGNCP [ESM172] | 26 µg | 49 C |  |  |  |  |  |  |  |  |  |  |  |  |  |  |  |  |  | 
